Measurements: PMC5701637, “Identification and Analysis of Novel Inhibitors against NS3 Helicase and NS5B RNA-Dependent RNA Polymerase from Hepatitis C Virus 1b (Con1)”

Molecular target: NS3 helicase (NS3h) (Hepatitis C virus genotype 1b (Con1), UniProt Q9WMX2 1193-1660)
Assay: fluorescence polarization; 5 nM DNA, 15 nM NS3h, 1.25 mM MgCl2; FP: 25 mM MOPS pH 7.5, 1.25 mM MgCl2, 0.0025 mg/mL BSA, 0.005% Tween 20, 0.025 mM DTT, 1% DMSO, temperature not stated; EMSA: 50 mM Tris-Cl pH 7.4, 10% glycerol, 0 C, 20 min
Details: protein: recombinant; tags: His tag (pET21b(+), HisTrap purified); single strand

NS3 helicase (NS3h), sequence (Q9WMX2 1193-1660): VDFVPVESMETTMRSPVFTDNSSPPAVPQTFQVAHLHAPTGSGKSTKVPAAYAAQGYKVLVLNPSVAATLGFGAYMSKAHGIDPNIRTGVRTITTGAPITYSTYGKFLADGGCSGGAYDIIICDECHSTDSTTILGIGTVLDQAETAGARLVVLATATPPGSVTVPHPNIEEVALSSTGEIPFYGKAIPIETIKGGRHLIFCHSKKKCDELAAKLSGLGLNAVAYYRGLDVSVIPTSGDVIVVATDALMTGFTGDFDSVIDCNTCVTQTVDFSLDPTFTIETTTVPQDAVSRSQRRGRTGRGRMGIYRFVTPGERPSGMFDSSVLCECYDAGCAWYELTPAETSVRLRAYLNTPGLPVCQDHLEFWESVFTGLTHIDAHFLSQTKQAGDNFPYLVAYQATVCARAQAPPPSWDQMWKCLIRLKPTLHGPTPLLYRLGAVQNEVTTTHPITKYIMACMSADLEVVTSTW

B1: Cy5-dT15 (ssDNA)
DNA: TTTTTTTTTTTTTTT
- binding result: binds
